From US20260167702A1 (Dana-Farber, published 2026)
Where two headings read alike, the source gives them in different places.

What was measured:
[1] = biological target: T1, recombinant full length HA of A/Vietnam/1203/04 (H5-VN04) (influenza A virus A/Vietnam/1203/04 …)
[2] = biological target: T1, recombinant full length HA of …; remark: listed apart in the source
[3] = biological target: T2, recombinant full length HA of A/Perth/16/09 (H3-PE09) (influenza A virus A/Perth/16/09 (H3N2))
[4] = biological target: full length HA of A/Vietnam/1203/04 (H5-VN04) expressed from pcDNA3.1 (on 293T cells and on pseudotyped … (influenza A virus A/Vietnam/1203/04)); assay: cell-based or functional assay
[5] = biological target: T1, recombinant full length HA of …; assay: BLI, IgG1 (legend of FIG. 15)
[6] = biological target: T1, recombinant full length HA of …; assay: BLI (Octet RED96), IgG1, recombinant HA
[7] = biological target: T2, recombinant full length HA of …; assay: BLI (Octet RED96), IgG1, recombinant HA
[8] = biological target: T2, recombinant full length HA of …; assay: BLI, IgG1 ('further experiments', FIGS. 15A and 15B)
[9] = biological target: recombinant full length HA of A/mallard/Astrakhan/263/82 (H14-AS82) (influenza A virus …, UniProt P26136 18-568); assay: BLI, purified recombinant HAs; antibody format not stated here

B1: 3I14 IgG1 (wild type) (antibody, V domains shown)
VH: QVQLLESGGGVVQPGRSLRLSCAASGFTFSNYGMHWVRQAPGKGLEWVAIISFDGSKKYYANSVKGRSTISRDNSKNTLSLQMNSLGPEDTALYYCAKLPSPYYFDSRFVWVAASAFHFWGQGILVTVSS
VL: NFMLTQPPSASGTPGQRVTISCSGSSSNIGGNTVHWFQQLPGTAPKLLIYTNSLRPSGVPDRFSGSKSGTSASLAISGLQSEDEADYYCAAWDDSLNGQVFGGGTKLTVL
Kd [1]: > 1 nM
Kd [2]: 1.02 nM
koff [2]: 0.000383 s⁻¹
kon [2]: 375000 M⁻¹ s⁻¹
Kd [3]: 0.263 nM
koff [3]: 3.99e-05 s⁻¹
kon [3]: 152000 M⁻¹ s⁻¹
IC50, neutralization of H5-VN04 pseudovirus [4]: 81.6 ng/mL
IC50, neutralization of pseudovirus [4]: 2.14 µg/mL
Kd [5]: 1.15 nM
Kd [6]: 1.02 nM
koff [6]: 0.000387 s⁻¹
kon [6]: 327000 M⁻¹ s⁻¹
Kd [7]: 0.263 nM
koff [7]: 3.99e-05 s⁻¹
kon [7]: 152000 M⁻¹ s⁻¹
Kd [8]: 1.96 nM
Kd [9]: < 0.1 nM
